Experimental data: PMC3125217

Columns and labels:
Assay in all cases: inhibition of PE/PC monolayer binding (surface pressure, Wilhelmy technique); spectrin polypeptides preincubated 30 min at room temperature with ankSBD, then injected under a PE/PC 3:2 monolayer; 5 mM Tris/HCl pH 7.5, 0.5 mM EDTA, 150 mM NaCl, 0.5 mM dithiothreitol, 1 mM NaN3; 21°C
[1] = target: ankBDn triple mutant CLSC (W1771C, M1778S, W1779C) (UniProt P11277)
[2] = target: ankBDn triple mutant SSSW (W1771S, L1775S, M1778S) (UniProt P11277)
[3] = target: recombinant ankyrin-binding domain of erythroid β-spectrin (ankBDn), wild type (UniProt P11277)

- Ki [1]: 170 pM
- Ki [2]: 200 pM
- Ki [3]: 150 pM
Substance: recombinant spectrin-binding domain of erythrocyte ankyrin (ankSBD) (from UniProt P16157 1-1881) (domain or fragment)
